2 molecules from paper PMC3087822 (Nature structural & molecular biology, 2011) can be followed below.

Test [1] concerns the target rat Munc13-1(859–1407,1453–1531) fragment (MUN*) (rat) (UniProt Q62768). The test is described as follows: NMR titration.
For test [2], the target named is cytoplasmic domain (residues 2–253) of rat syntaxin-1A (rat, UniProt P32851 2-253). The experiment in a line: SEC. On the technique in general: Size exclusion chromatography separates by hydrodynamic size, large species first.

A word on the Kd: it is the free concentration of one partner at which half of the binding sites on the other are occupied at equilibrium, for simple one-to-one binding. For the molecule “Munc18-1–SNARE complex assembly (Munc18-1 plus SNARE complex as titrated on 15N-MUN*) (from UniProt P32851;P63045;P60880)”, in test [1], the Kd stood at 13 µM.

B1: human SNAP25 (residues 11–82) (domain or fragment)
chain: LEEMQRRADQLADESLESTRRMLQLVEESKDAGIRTLVMLDEQGEQLERIEEGMDQINKDMKEAEKNLTDLG
In the case of B1, in test [2], the binding result was “binds”.
